“Also recorded” adds a separate entry of the source.
Key:
[1] = system: FoxP3+ CD8 T-cells (TcREG); assay: In vivo TcREG induction: GFP negative CD8 T-cells adoptively transferred into OT-I Rag-/- mice
Experimental: FIGS. 1A, 1B and 1C indicate that TcREG are induced by activated osteoclasis. […] In the absence of RANK L treatment, very low level of conversion was observed after three days. […] ZA was administered intravenously one week prior to adoptive transfer of CD8 T-cells.
It was first determined the dose of RANKL that produced the maximal number FoxP3^+ CD8 T-cells in the bone marrow. RANKL was administered into FoxP3-GFP reporter mice at various doses for two consecutive days. Fifty hours after first dose, the mice were sacrificed and the numbers of CD8 T-cells that were GFP positive cells in the bone marrow were measured. […] The increased levels of FoxP3 in the bone marrow could either be due to recruitment of TcREG to the bone marrow or induction of FoxP3 expression in cells that were FoxP3 negative. To test for induction FACS sorted the GFP negative population of CD8 (Thy 1.2+ that were CD44 negative or naïve) from the spleens and bone marrow to high purity (FIG. 1C first panel) and adoptively transferred them into congenically marked (Thy 1.1) OT-I Rag^−/− mice. […] In the absence of RANKL administration low levels […] CD8 T-cell were detected (FIGS. 1B and C second panel), but RANKL administration (0.125 mg/kg) yielded ˜1% […] Thy 1.2 T-cells (FIGS. 1B and 1C third panel). […]

[2] = system: ovariectomized mice; assay: Pulsed versus continuous (ALZET pump) RANKL in OVX mice; type: in vivo
Experimental: FIGS. 10A through 10E show the effect of delivering RANKL in pulses as opposed to a continuous exposure leads to its antiresorptive effect. 12 week old mice were treated either as sham-operated or OVX using pumps or pulsed. Two weeks post-surgery ALZET® pumps were implanted in the intraperitoneal cavity that contained either PBS or RANKL as indicated in the plots above. All groups were pulsed with equivalent dose of RANKL (0.125 mg/kg, pulsed twice 24 hrs. apart) or PBS as indicated in the plots. […] In FIG. 10B, Quantification across groups (6 mice/group).

[3] = system: ovariectomized mice; assay: Low-dose RANKL at various times post-OVX in C57BL/6J mice; type: in vivo; details: for TcREG induction (flow-cytometry, femora): OVX C57BL/6J, two doses 0.125 mg/kg 24 hours apart, 10 days after first treatment, 2, 3, 6, 8 weeks post-OVX, 0.125 mg/kg
Experimental: FIGS. 9E-9F provide for examples of a low-dose RANKL treatment in a mouse model. All mice (C57BL/6J) were sham-operated (S) or ovariectomized (OVX) at 12 weeks of age. At time indicated after OVX, two doses of RANKL (0.125 mg/kg) were administered 24 hours apart 10 days after first treatment, mice were sacrificed. […] Representative images of the proximal tibia are shown from 3 weeks post-OVX in FIG. 9E. […] Representative images from the double-labeled femur (calcein green and alizarin red) from each group are shown. Arrows are shown to emphasize the distance between dyes. Data from 6 to 12 mice per group. For figure reference; ****=P<1×10^−4; ***=P<1×10^−3; **=P<0.01; *=P<0.05 and NS=not statistically significant.

B1: receptor activator of NF-κB ligand (protein, UniProt O35235 139-316, looked up)
Tumor necrosis factor ligand …: FSGAPAMMEGSWLDVAQRGKPEAQPFAHLTINAASIPSGSHKVTLSSWYHDRGWAKISNMTLSNGKLRVNQDGFYYLYANICFRHHETSGSVPTDYLQLMVYVVKTSIKIPSSHNLMKGGSTKNWSGNSEFHFYSINVGGFFKLRAGEEISIQVSNPSLLDPDQDATYFGAFKVQDID
modifications: GST tag
B1 was tested, and the “TcREG induction by RANKL” value ([1]; 0.125 mg/kg, 50 hrs after RANKL treatment, 3 days after T-cell transfer) was “robustly induced TcREG”, the “GFP+ Thy 1.2 T-cells after RANKL administration” value ([1]; RANKL 0.125 mg/kg, OT-I Rag-/- recipients) was roughly 1% and the bone resorption ([2]; continuous delivery via osmotic pumps) was “led to increased bone resorption”. The TcREG induction ([2]; continuous exposure by pump, identical dose) was “did not induce TcREG; also recorded: No TcREG induction is observed”, the “Bone volume (BV/TV)” value ([2]; delivered by pump) was “decreased” and the “Bone volume (BV/TV)” value ([2]; pulsed) was “restored to levels observed in sham-operated mice”. The TEFF cells ([2]; pulsed) was “decrease in TEFF cells was only observed in mice pulsed with RANKL”, the bone resorption ([2]; pulsed) was “decreased levels of bone resorption were observed” and the TcREG induction ([2]; pulsed, 0.125 mg/kg twice 24 hrs apart) was “induced TcREG”. For the same molecule, the “TcREG induction (flow-cytometry, femora)” value ([3]; listed as Low-dose RANKL) was “induced TcREG”, the “TcREG induction (flow-cytometry, femora)” value ([3]; listed as low-dose RANKL) was “can induce TcREG at two, three, six and eight-weeks post-ovariectomy” and the “bone mass of the proximal tibia by μCT” value ([3]; as E20) was “increased bone mass of the proximal tibia”. For the same molecule, the “mineral apposition and bone formation rate (dynamic histomorphometry)” value ([3]; as E20) was “increased mineral apposition (left panel) and bone formation rate”, the “proinflammatory effector cells in the femora” value ([3]; as E20) was “decreased proinflammatory effector cells in the femora” and the “serum CTX levels” value ([3]; as E20) was “decreased serum CTX levels”.

Reference: patent US10745461B2, “Pulsed introduction of low-dose RANKL as a therapy for diet-induced atherosclerosis” (Saint Louis University, priority 2015, dated 2020)
